According to US20250075249A1 (QUEENSLAND UNIVERSITY OF TECHNOLOGY, published 2025):

Assays:
Experiment in all cases: cell-based or functional assay
[1] = biological target: Tre G104_P321 CaM chimera
FKBP-2CaM-BLA-FKBP = biological target: FKBP-2CaM-BLA-FKBP
[2] = biological target: FKBP-2CaM-Tre-FKBP fusion protein

| Binder | EC50 (read off the curve) [1] [nM] | apparent Kd from titration with rapamycin (small molecule varied; 25 nM BLA-2CaM-2FKBP, 100 nM FRB-CaM-BP; β-lactamase activity) (FKBP-2CaM-BLA-FKBP) [nM] | apparent Kd from titration with rapamycin (small molecule varied; 100 nM 2FKBP-Tre-2CaM, 200 nM FRB-CaM-BP; trehalase activity) [2] [nM] |
| --- | --- | --- | --- |
| KRRWKKNFIAVSAANRFKKISSSGAL (peptide, UniProt P07313 578-603, looked up) [M13 calmodulin binding peptide] | ~60 | – | – |
| FRB-CaM-BP (fusion of FRB and a low affinity calmodulin binding peptide) (other) AHHHHHHSSGTRVAILWHEMWHEGLEEASRLYFGERNVKGMFEVLEPLHAMMERGPQTLKETSFNQAYGRDLMEAQEWCRKYMKSGNVKDLTQAWDLYYHVFRRISGGSGGSGSGSGGSGGKRRWKKNFIAVSAANR | – | 11 | 89 |
